Assay results as given in patent US20160053014A1 (SORRENTO THERAPEUTICS, published 2016).
Where a chain is given by its changes, count along the chain named.

T1: human CXCR5 (human, UniProt P32302 1-372)
T1 construct: whole, on cells; also called hu-CHO; CHO-CXCR5 cells
T1 sequence (looked up): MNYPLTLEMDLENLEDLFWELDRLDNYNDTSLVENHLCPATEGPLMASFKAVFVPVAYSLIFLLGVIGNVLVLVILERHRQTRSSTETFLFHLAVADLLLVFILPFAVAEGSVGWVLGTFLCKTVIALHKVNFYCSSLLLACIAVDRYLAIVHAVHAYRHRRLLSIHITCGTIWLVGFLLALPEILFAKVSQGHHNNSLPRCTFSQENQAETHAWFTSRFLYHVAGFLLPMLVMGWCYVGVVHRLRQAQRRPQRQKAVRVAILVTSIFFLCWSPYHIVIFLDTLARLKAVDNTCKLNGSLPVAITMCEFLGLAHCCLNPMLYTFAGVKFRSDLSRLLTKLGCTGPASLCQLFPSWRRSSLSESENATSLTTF

T2: murine CXCR5 (murine, UniProt Q04683 1-374)
T2 construct: whole, on cells; Endogenous receptor on mouse spleen cells cultured with LPS
T2 sequence (looked up): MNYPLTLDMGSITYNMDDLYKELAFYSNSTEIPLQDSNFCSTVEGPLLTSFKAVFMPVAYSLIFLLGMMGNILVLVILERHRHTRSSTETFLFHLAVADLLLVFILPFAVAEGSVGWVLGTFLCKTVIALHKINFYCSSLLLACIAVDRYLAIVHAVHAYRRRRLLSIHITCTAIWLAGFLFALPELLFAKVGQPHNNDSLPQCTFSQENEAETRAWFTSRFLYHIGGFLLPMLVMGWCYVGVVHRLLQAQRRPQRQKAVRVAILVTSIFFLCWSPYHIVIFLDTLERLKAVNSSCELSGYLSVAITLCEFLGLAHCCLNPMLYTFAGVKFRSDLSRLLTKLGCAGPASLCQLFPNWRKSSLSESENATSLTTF

B1: 11A7 (antibody, human IgG1, V domains shown)
VH: EVQLVESGGGLVQPGGSLRLSCAASGFTVSSNYMSWVRQAPGKGLEWVSVIYSGGSTYYADSVKGRFTISRHNSKNTLYLQMNSLRAEDTAVYYCARGYVVWGQGTLVTVSS
VL: QPVLTQPPSVSKDLRQTATLTCTGNSNNVGNQGATWLQQHQGHPPKLLSYKNNNRPSGISERFSASRSGNTASLTITGLQPEDEADYYCSAWDSSLSAWVFGGGTQLTVL
notes: 'Antibody 11A7 is a fully human IgG1'
B2: 12G10 (antibody, V domains shown)
VH: EVQLVESGGGVVQPGRSLRLSCAASGFTFSSYAMHWVRQAPGKGLEWVAVISYDGSNKYYADSVKGRFTISRDNSKNTLYLQMNSLRAEDTAVYYCARIAVAGTHFDYWGQGTLVTVSS
VL: SYELMQPPSVSGTPGQRVTISCSGSTSNVGSNTVNWYRQFPGTAPKLLIYANNQRPSGVPDRFSGSKSGTSASLAISGLQSENEADYYCAAWDDSLNGYVFGTGTKLTVL
notes: tested as human IgG
B3: 13E4 (antibody, V domains shown)
VH: QITLKESGGGVVQPGRSLRLSCAASGFTFSSYGMHWVRQAPGKGLEWVAVISYDGSNKYYADSVKGRFTISRDNSKNTLYLQMNSLRAEDTAVYYCANNGWATYPDYWGQGTLVTVSS
VL: QPVLTQPASVSGSPGQSITISCTGTSSDVGGYNYVSWYQQHPGKAPKLMIYDVSNRPSGVSNRFSGSKSGNTASLTISGLQAEDEADYYCSSYTSSSTLVFGGGTKLTVL
notes: tested as human IgG
B4: 13E10 (antibody, V domains shown)
VH: EVQLVQSGAEVKKPGASLKISCRASGYTFTRNYIHWVRQAPGQGLEWLGIINPNGGSTRYSQKFQGRVTMTRDTSTRTVYMELSSLRSEDTAVYYCAREAPKYCSGSSCYSGGVDYWGQGTLVTVSS
VL: QPVLTQPLSASGTPGQRVTISCSGSSSNIGSNYVYWYQQLPGTAPKLLIYRNYQRPSGVPDRFSGSTSGTSASLAISGLRSEDEADYHCAAWDGSMRGWVFGGGTKLTVL
notes: tested as human IgG
B5: 13F9 (antibody, V domains shown)
VH: EVQLLESGGGLIQPGGSLRLSCAASGFIFSRYGMHWVRQAPGKGLEWVAVTSYDGRSKYYTDSVQGRFTISRDNSKNTLDLQMNSLRAEDTAVYYCARLHTVGPWHFDLWGRGTLVTVSS
VL: B3 VL with Q1S, P2Y, V3E, A8R, I18V, A45V, D52E, T72A
notes: tested as human IgG
B6: 14E5 (antibody, V domains shown)
VH: EVQLVESGGGVVQPGRSLRLSCAASGFTFSSYGMHWVRQAPGKGLEWVAVISYDGSNKYYADSVKGRFTISRDNSKNTLYLQMNSLRAEDTAVYYCAKVYSRGSDYWGQGTLVTVSS
VL: QSVLTQPASVSGSPGQSITISCTGTSSDVGGYNYVSWYQQHPGKAPKLLIYDVSRRPSGISSRFSGSKSGNTASLTISGLQTEDDGDYYCLSYTTSRAVVFGGGTKLTVL
notes: tested as human IgG
B7: 15G11 (antibody, V domains shown)
VH: QVQLVQSGGGVVQPGGSLRLSCAASGFAFNRYGMHWVRQAPGQGLEWVAVISYDGSLKYYADSVKGRFTISRDNSNNTLYLQMNSLSADDTAVYYCAKGGAALDSWGQGTLVTVSS
VL: DVVMTQSPLSSPVTLGQPASISCRSSQSLVHSDGTTYLSWLQQRPGQPPRLLIYKISNRFSGVPDRFSGSGAGTDFTLKISRVEAEDVGVYYCMQTTQFPPMFGQGTKVEIK
notes: tested as human IgG
B8: 16F8 (antibody, V domains shown)
VH: EVQLLESGGGLVQPGGSLRLSCAASGFTFSSYGMHWVRQAPGKGLEWVAVISYDGSNKYYADSVKGRFTISRDNSKNTLYLQLNSLRAEDTAVYYCARGQNLDYWGQGTLVTVSS
VL: B3 VL with V35I, D52E, T94R, L99Q
notes: tested as human IgG
B9: 16F9 (antibody, V domains shown)
VH: EVQLVESGGEVKKPGASVKLSCKSSGYTFTSYYMHWVRQAPGQGLEWMGIINPSGGSTSSAQKFQGRVTMTRDTSTRTVYMELSSLRSEDTAVYYCARGAPNWNYARTLFDYWGQGTLVTVSS
VL: SYELTQPRSVSGSPGQSVTISCTGTSSDVGGYNSVSWYQQHPGKAPKLMIYDVSKRPSGVPDRFSGSKSGNTASLTISGLQAEDEADYYCSSYSSSTTHVVFGGGTKLTVL
notes: tested as human IgG
B10: 11E3 (antibody, V domains shown)
VH: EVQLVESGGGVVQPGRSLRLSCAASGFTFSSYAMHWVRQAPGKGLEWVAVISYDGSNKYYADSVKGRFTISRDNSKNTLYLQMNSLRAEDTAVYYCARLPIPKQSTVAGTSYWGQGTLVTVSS
VL: LPVLTQPASVSGSPGQSITISCTGTSSDVGGYNYVSWYQQHPGNAPKLMIYDVSNRPSGVSNRFSGSKSGNTASLTISGLQAEDEADYYCSSYTSSSTLYVFGTGTKLTVL
notes: tested as human IgG
B11: 11G3 (antibody, V domains shown)
VH: EVQLVQSGGGVVQPGRSLRLSCAASGFTFSSYAMHWVRQAPGKGLEWVAVISYDGSNKYYADSVKGRFTISRDNSKNTLYLQMNSLRAEDTAVYYCARLTRGSDYYGSGRSMNDYWGQGTLVTVSS
VL: DIVMTQTPLSLPVTLGQPASISCRSSQSLVHSDGNTYLNWFQQRPGQSPRRLIYKVSNRDSGVPDRFSGSGSGTDFTLKISRVEAEDVGVYYCMQGTHWPPTFGQGTKVEIK
notes: tested as human IgG
B12: 12D3 (antibody, V domains shown)
VH: B8 VH with L5V, Q13K, G16R, G33A, L83M, G99L, Q100R, N101W
VL: QPVLTQPASVSGSPGQSIAISCTGTSSDVGSNNRVSWYQQHPGKAPKLMIYEVDKRPSGVSNRFSGSKSGNTASLTISGLQAEDEADYYCGTWDSSLSAYVFGTGTKLTVL
notes: tested as human IgG
B13: 12C1 (antibody, V domains shown)
VH: EVQLLESGGGLVKPGGSLRLSCAASGFTFNNYAMHWVRQAPGKGLEWLTVISFYGGKQYYADSVKGRFTISRDNSRNTLYLQMNSLRADDTAVYYCARDNGRHFDYWGQGTLVTVSS
VL: B3 VL with N55K, S91T, T94R, S96G, S97R, L99Y, G103S, L107V
notes: tested as human IgG
B14: 12D11 (antibody, V domains shown)
VH: EVQLVQSGAEVKKPGASVKVSCKASGYTFTGYYLNWVRQAPGQGLEWMGWINPNNGGTNYAQRFQGRVTMTRDTSISTAYMDLSRLRSDDTAVYYCVRGTRKYYHDSNGRRRDYYYGMDVWGQGTTVTVSS
VL: AIRMTQSPSSLSASVGDRVTITCRASQSISSYLNWYQQKPGKAPKLLIYAASSLQSGVPSKFSGSGSGTEFTLTISSLQPEDFATYYCQQYKFYPPNFGGGTKVEI
notes: tested as human IgG

molecular target: T1, human CXCR5; assay: flow cytometry on CHO-CXCR5 cells, IgG titration
Excerpt: This example describes a cellular binding assay to determine the EC₅₀ for anti-CXCR5 antibodies binding to human CXCR5. […] In this example, CHO-CXCR5 cells were lifted from culture flasks using non-enzymatic Cell Dissociation Buffer—PBS based (Life Technologies #13151-014). Cells were resuspended in FACS Buffer (2% Fetal Bovine Serum in PBS) at 1×10⁶ cells/ml and […] were aliquoted into the wells of a 96-well plate. Plated cells were spun down and the supernatant discarded. Cells were resuspended in 30 μl FACS Buffer serially diluted concentrations of CXCR5 IgG in triplicate. Plates were incubated for 1 hr at 4° C. and then washed 2× with FACS Buffer. Cells were resuspended in 50 μl goat anti-human IgG (γ-chain specific)-PE conjugated secondary antibody (Southern Biotech #2040-09) diluted 1:500 in FACS Buffer. Cells were further incubated for 30 min at 4° C. and then washed 1× with FACS Buffer. The cells were resuspended in a final volume of 30 μl FACS Buffer and analyzed using the Intellicyt Flow Cytometer. Median fluorescence in the FL-2H channel was determined using FlowJo software and EC₅₀ value was determined by plotting the data in GraphPad Prism and analyzing using a variable slope non-linear regression.

Binder	EC50
B1	0.9 nM
B2	0.5 nM
B3	0.9 nM
B4	0.7 nM
B5	1.6 nM
B6	0.3 nM
B7	0.4 nM
B8	3.6 nM
B9	0.7 nM
B10	1.8 nM
B11	2.6 nM
B12	1.3 nM
B13	12 nM
B14	2.1 nM

molecular target: T1, human CXCR5; assay: cell-based or functional assay

Binder	IC50 [nM] of mAbs in calcium flux assay using CHO-CXCR5 cells (challenge with 9 nM CXCL13)
B1	5 nM

molecular target: T1, human CXCR5; assay: cell-based or functional assay; remark: another data set of the same source

Binder	IC50 [nM] of mAbs in chemotaxis assay using HS-Sultan cells (25 nM CXCL13)
B1	4.8 nM

molecular target: T2, murine CXCR5; assay: flow cytometry on LPS-cultured mouse spleen cells, IgG titration
Description: In this example, mouse spleen cells were harvested from either C57B1/6 or athymic nu/nu mice. Cells were cultured at 2×10⁶ per ml with LPS at 10 micrograms per ml in RPMI+10% FCS for up to 4 days at 37° C. in 5% CO2. Cells were harvested, washed and resuspended in FACS Buffer (2% Fetal Bovine Serum in PBS) at 1×10⁶ cells/ml and 50 μl (0.5×10⁵ cells) were aliquoted into the wells of a 96-well plate. Plated cells were spun down and the supernatant discarded. Cells were resuspended in 30 μl FACS Buffer containing serially diluted concentrations of CXCR5 IgG in triplicate. Plates were incubated for 1 hr at 4° C. and then washed 2x with FACS Buffer. Cells were resuspended in 50 μl goat anti-human IgG (γ-chain specific)-PE conjugated secondary antibody (Southern Biotech #2040-09) diluted 1:500 in FACS Buffer. Cells were further incubated for 30 min at 4° C. and then washed 1× with FACS Buffer. The cells were resuspended in a final volume of 30 μl FACS Buffer and analyzed using the Intellicyt Flow Cytometer. Median fluorescence in the FL-2H channel was determined using FlowJo software and EC₅₀ value was determined by plotting the data in GraphPad Prism and analyzing using a variable slope non-linear regression.

Binder	EC50
B2	2.5 nM
B3	5.5 nM
B4	25 nM
B5	23 nM
B6	2.8 nM
B7	4.8 nM
B8	15 nM
B9	3.1 nM
B10	11 nM
B11	37 nM
B12	27 nM
